In PMC9481602 (Nature Communications, 2022):

Tests used:
nonmodified ubiquitin = molecular target: T1, nonmodified ubiquitin (UniProt P0CG48 1-76); experiment: NMR titration; unlabelled Ubiquilin-2 UBA domain added stepwise to 15N-labelled Ub variants (33 µM Ub 11AcK and nonmodified Ub; 157 µM the other variants); 1H-15N HSQC, 298 K, 18.8 T, 20 mM NaH2PO4 pH 6.8, 5% D2O; global fit of six residues assuming 1:1 binding; conditions: both partners purified
T1 construct: ubiquitin (Ub), the 76-residue cut product of its precursors; codon-optimized cDNA; 15N isotopically labelled in the NMR titration; also called Ub (wt); source: E. coli, purified (HisTrap, His-tag removed with UCHL3, HiTrap SP); not shown: His6, C-terminal, cleaved

[1] = molecular target: T2, ubiquitin acetylated at K11 (UniProt P0CG48 1-76, acetyllysine (AcK) at position 11); experiment: as above; conditions: both partners purified
T2 construct: ubiquitin (Ub), the 76-residue cut product of its precursors; codon-optimized cDNA; K11 replaced by acetyllysine; 15N isotopically labelled in the NMR titration; also called Ub 11AcK; source: E. coli B834 (DE3), amber suppression with AcK-RS/tRNA, purified (HisTrap, His-tag removed with UCHL3, HiTrap SP); not shown: His6, C-terminal, cleaved

Kd (nonmodified ubiquitin): 2 ± 0.4 µM
Kd [1]: 8 ± 0.8 µM
B1: UBA domain of human Ubiquilin-2 (domain or fragment, UniProt Q9UHD9 581-621, looked up)
chain: RFQQQLEQLNAMGFLNREANLQALIATGGDINAAIERLLGS
notes: Ubiquilin-2 (Chap1, hPLIC-2), human, UBA domain; Unlabelled; also called UQ2-UBA; Chap1; source: E. coli BL21 (DE3) Rosetta, purified (Glutathione Sepharose, TEV cleavage, SEC); not shown: GST, N-terminal, cleaved
